# From patent publication US20160168212A1 (RAMOT AT TEL AVIV UNIVERSITY, published 2016)
# Target: α-synuclein (recombinant, monomeric fraction) (UniProt P37840 1-140)
# Assay: fluorescence anisotropy; α-syn monomers titrated into the Trp-containing peptide
# Protocol: The solution was immediately mixed with α-syn monomer stock solution to varying final concentrations. The peptide polarization measurements were carried out using an ISS K2 fluorometer. The solutions were excited at 280 nm and emission was monitored at 350 nm. For each single point, at least five measurements were collected and their average values were used for the calculation. All experiments were performed using ultra pure water.
binder,measurement,value
GVLWVGSKTR (also called β-syn 36 containing Tryptophan instead of Tyrosine) [β-syn 36 in which tyrosine was substituted with tryptophan],Kd,~1000 nM
